Assay results as given in PMC7295619.

Target: Porcine circovirus type 3 (PCV3) capsid protein (porcine circovirus type 3)
Assay: cryo-EM structure; in vitro assembled full-length PCV3-VLP, 1 mg/ml, Titan Krios 300 kV, EMAN2 reconstruction with icosahedral symmetry applied, ~8.5 Å

With “Porcine circovirus type 3 (PCV3) capsid protein (natural protein)” as the substance, how does the stoichiometry N read?
The stoichiometry N was 60.
